In publication PMC7190642 one finds Kd and rate of autoubiquitination of the MDM2 homodimer over time, S429E against WT data, which are given here for one substance.

Experiment [1] concerns the target GST-cat MDM2-422–C (Felis catus (cat)) (UniProt Q7YRZ8). As to the kind of experiment: SPR; GST-tagged MDM2 variants captured on a CM-5 chip with coupled anti-GST antibody; serial dilution of UbcH5B–Ub as analyte; 25 °C; 25 mM Tris-HCl pH 7.6, 150 mM NaCl, 0.1 mg/ml BSA, 1 mM DTT, 0.005% Tween-20; Biacore T200; GST alone subtracted. (SPR reads the build-up and loss of mass on a sensor chip optically.)

For experiment [2], the target named is GST-MDM2-419–C-S429E/His-MDMX-418–C heterodimer (UniProt Q00987). Described as above.
The target in experiment [3] is GST-MDM2-419–C-S429E (human) (UniProt Q00987). The description is as above.
The target of experiment [4] is GST-MDM2-350–C-6D (human) (UniProt Q00987). Described as above.
For experiment [5], the target named is GST-cat MDM2-422–C-S429E (Felis catus (cat)) (UniProt Q7YRZ8). The description is as above.
In experiment [6] the target is GST-MDM2-419–C/His-MDMX-418–C heterodimer (UniProt Q00987). The description is as above.
Experiment [7] addresses GST-MDM2-350–C-S395D (human) (UniProt Q00987). Described as above.
Experiment [8] has as its target GST-MDM2-350–C/His-MDMX-428–C heterodimer (UniProt Q00987). The description is as above.
A further experiment addresses GST-MDM2-419–C (human) (UniProt Q00987). The description is as above.
The target of experiment [9] is GST-MDM2-350–C-S429D (human) (UniProt Q00987). The description is as above.
The target of experiment [10] is GST-MDM2-350–C-6D/His-MDMX-428–C heterodimer (UniProt Q00987). Described as above.
In experiment [11] the target is GST-MDM2-350–C-S386D (human) (UniProt Q00987). Described as above.
Experiment [12] concerns the target GST-MDM2-419–C-pS429 (human) (UniProt Q00987). Described as above.
For experiment [13], the target named is GST-MDM2-350–C-S425D (human) (UniProt Q00987). The experiment is described as above.
The target of experiment [14] is GST-MDM2-350–C-S407D (human) (UniProt Q00987). The description is as above.
The target of experiment [15] is GST-MDM2-350–C-T419D (human) (UniProt Q00987). The description is as above.
Experiment [16] addresses GST-MDM2-419–C-S429D (human) (UniProt Q00987). The description is as above.
The target in experiment [17] is GST-MDM2-419–C-S429E (human) (UniProt Q00987).

In general, Kd refers to a measure of binding affinity in units of concentration. A low value points to tighter binding. “UbcH5B S22R, C85K–Ub (stably conjugated E2–ubiquitin) (from UniProt P62837 1-147; P0CG47 1-76) (complex)”: the Kd turned out to be 16.8 µM in experiment [1]; 17.8 µM in [2]; 6.4 µM in experiment [3]; 6.7 µM in [4]; 6.8 µM in [5]; 23.4 µM in experiment [6]. Moreover, the Kd in experiment [7] was found to be 13.7 µM; in experiment [8], 36.7 µM; in the experiment with GST-MDM2-419–C (human), 14 µM; in experiment [9], 7.8 µM; in experiment [10], 29.2 µM; in experiment [11], 13.7 µM. For the same substance, the Kd in [12] was found to be 5.1 µM; in experiment [13], 13.4 µM; in [14], 13.7 µM; in [15] it was 13 µM; in [16], 7.1 µM. The substance further displayed a rate of autoubiquitination of the MDM2 homodimer over time, S429E against WT in [17] of 1.6 fold.
